{"source": "patent US20250027945A1", "about": "(University of California, published 2025)", "key": {"[1]": {"target": "T1, recombinant extracellular protein of mouse RYK (mouse, UniProt Q01887 35-211)", "T1 construct": "also called mRYK; not shown: rabbit IgG tag for purification", "T1 sequence (Q01887 35-211)": "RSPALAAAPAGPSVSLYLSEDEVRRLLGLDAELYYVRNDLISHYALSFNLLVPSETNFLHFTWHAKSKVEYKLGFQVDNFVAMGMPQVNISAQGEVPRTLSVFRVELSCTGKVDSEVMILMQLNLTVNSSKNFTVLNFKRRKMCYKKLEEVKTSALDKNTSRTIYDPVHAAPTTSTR", "assay": "immunoblot of recombinant extracellular protein on nylon membrane", "description": "FIG. 4A illustrates experiments in which binding of 2-D11, 7-H10, 3-C12, 11-E9, 6-B5, 6-D10 and sheep anti-RYK mAb was assessed using recombinant human RYK proteins (SEQ ID NO:129) in which one amino acid that differs between human and mouse RYK within the extracellular domain was replaced with the corresponding amino acid of mouse RYK. Each recombinant protein was transferred onto nylon membrane, probed with the indicated anti-RYK mAb or Sheep anti-RYK Ab, and detected with an anti-mouse IgG or donkey-anti-sheep antibody conjugated with horse radish peroxidase. […]\nThe anti-human RYK mAbs, 2-D11 and 7-H10, appear specific for an amino terminal epitope of human Ryk (residues 46-57) that are distinct from those in mouse Ryk (FIG. 3); these mAbs also bind mutant forms of Ryk containing amino acid substitutions in human Ryk at positions that differ from that of the highly homologous mouse Ryk to assimilate mouse Ryk at the site of substitution, with amino acid sequence shown in FIG. 3, as shown by immunoblot analyses of recombinant extracellular proteins of human or mouse or each of the various mutant forms of human Ryk (FIG. 4) For this, the binding of 2-D11, 7-H10, or Sheep anti-RYK mAb was assessed using recombinant extracellular RYK proteins as specified in the Key. […]"}, "[2]": {"target": "T2, human RYK on the surface of human tumor cell lines (human, UniProt P34925 46-607)", "T2 construct": "whole, on cells; Endogenous expression", "T2 sequence (P34925 46-607 limits assumed, form in doubt)": "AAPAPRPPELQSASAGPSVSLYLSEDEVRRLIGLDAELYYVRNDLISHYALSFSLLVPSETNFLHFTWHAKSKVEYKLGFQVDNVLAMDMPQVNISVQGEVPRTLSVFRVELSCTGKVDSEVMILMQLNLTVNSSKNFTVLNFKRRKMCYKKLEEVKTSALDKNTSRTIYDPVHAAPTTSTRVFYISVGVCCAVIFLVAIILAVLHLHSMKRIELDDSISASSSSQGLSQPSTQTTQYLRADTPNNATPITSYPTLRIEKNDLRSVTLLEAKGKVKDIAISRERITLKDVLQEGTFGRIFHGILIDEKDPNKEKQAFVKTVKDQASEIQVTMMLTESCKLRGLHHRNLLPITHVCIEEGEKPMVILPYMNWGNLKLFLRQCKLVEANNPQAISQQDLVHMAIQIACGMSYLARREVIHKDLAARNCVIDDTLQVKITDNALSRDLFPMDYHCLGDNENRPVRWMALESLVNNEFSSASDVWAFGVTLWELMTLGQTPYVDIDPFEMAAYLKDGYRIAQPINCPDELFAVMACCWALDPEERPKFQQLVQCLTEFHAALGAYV", "assay": "flow cytometry, COLO 829 cells (melanoma), 5 ug/ml 2-D11-Alexa647", "description": "(§1) Table 1 provides the flow cytometry data on various cancer cell lines stained with fluorochrome-conjugated 2-D11, as depicted in FIG. 8. The name of each cell line is listed in the first column and the tissue of origin is listed in the second column. Binding of the 2-D11 mAb to human RYK was assessed by flow cytometric staining and analysis by staining on ice for 20 minutes with 5 μg/ml of 2-D11 anti-human RYK-Alexa647 conjugated mAb or equal amounts of isotype matched control mAb, washed, and analyzed. The median fluorescence intensity (MFI) of 2-D11 stained cells is listed in the middle column and the MFI of isotype control stained cells are listed in the in the adjacent column. Cell lines were scored as “++”, “+”, or neg (unmarked with “+”) lines based on the ratio of median fluorescence intensity (MFI) of stained cells relative to the MFI of isotype control stained cells (MFIR).\n(§2) The name of each cell line is listed in the first column and the tissue of origin is listed in the second column. Binding of the 2-D11 mAb to human RYK was assessed by flow cytometric staining and analysis by staining on ice for 20 minutes with 5 μg/ml of 2-D11 anti-human RYK-Alexa647 conjugated mAb or equal amounts of isotype matched control mAb, washed and analyzed. […]"}, "[3]": {"target": "T2, human RYK on the surface of human tumor …", "assay": "flow cytometry, NCI H226 cells (lung), 5 ug/ml 2-D11-Alexa647", "description": "as §1, §2"}, "[4]": {"target": "T2, human RYK on the surface of human tumor …", "assay": "flow cytometry, T24 cells (bladder), 5 ug/ml 2-D11-Alexa647", "description": "as §1, §2"}, "[5]": {"target": "T2, human RYK on the surface of human tumor …", "assay": "flow cytometry, SW948 cells (colon), 5 ug/ml 2-D11-Alexa647; line unmarked (no staining)", "description": "as §1, §2"}, "[6]": {"target": "T2, human RYK on the surface of human tumor …", "assay": "flow cytometry, SKBR3 cells (breast), 5 ug/ml 2-D11-Alexa647", "description": "as §1, §2"}, "[7]": {"target": "T2, human RYK on the surface of human tumor …", "assay": "flow cytometry, SW620 cells (colon), 5 ug/ml 2-D11-Alexa647; line unmarked (no staining)", "description": "as §1, §2"}, "[8]": {"target": "T2, human RYK on the surface of human tumor …", "assay": "flow cytometry, MINO cells (mantle), 5 ug/ml 2-D11-Alexa647", "description": "as §1, §2"}, "[9]": {"target": "T2, human RYK on the surface of human tumor …", "assay": "flow cytometry, A673 cells (Ewings sarcoma), 5 ug/ml 2-D11-Alexa647", "description": "as §1, §2"}, "[10]": {"target": "T2, human RYK on the surface of human tumor …", "assay": "flow cytometry, CAPAN-1 cells (pancreas), 5 ug/ml 2-D11-Alexa647", "description": "as §1, §2"}, "[11]": {"target": "T2, human RYK on the surface of human tumor …", "assay": "flow cytometry, JEKO cells (mantle), 5 ug/ml 2-D11-Alexa647; line unmarked (no staining)", "description": "as §1, §2"}, "[12]": {"target": "T2, human RYK on the surface of human tumor …", "assay": "flow cytometry, H446 cells (lung), 5 ug/ml 2-D11-Alexa647", "description": "as §1, §2"}, "[13]": {"target": "T2, human RYK on the surface of human tumor …", "assay": "flow cytometry, REH cells (ALL), 5 ug/ml 2-D11-Alexa647; line unmarked (no staining)", "description": "as §1, §2"}}}
{"binder": "2-D11 anti-human RYK mAb (antibody, V domains shown, Mouse hybridoma mAb, kappa light chain, detected with anti-mouse IgG; also called mAb 2-D11; 2-D11 anti-human RYK-Alexa647 conjugated mAb) VH: QVQLKESGPGLVAPSQSLSITCSVSGFSLNDYGVNWVRQPPGKDLEWLGMIWGDGVTEYNSTLKSRLSISKDNSKSQVFLKMNNLQTEDTARYYCVRQGSGVWFAHWGQGTLVSVSS VL: DVLVTQTPLSLPVSLGDQASISCRSSQTIVHSNGNTYLEWYLQKPGQSPKLLIYKVSNRFSGVPDRFSGSGSGTDFTLKISRVEAEDLGIYYCFQGSHVPYTFGGGTKLEIK", "values": [{"measurement": "binding result", "setting": "[1]", "result": "no binding"}, {"measurement": "MFIR (MFI ratio to isotype control)", "setting": "[2]", "result": 2.3}, {"measurement": "MFIR (MFI ratio to isotype control)", "setting": "[3]", "result": 2}, {"measurement": "MFIR (MFI ratio to isotype control)", "setting": "[4]", "result": 1.6}, {"measurement": "MFIR (MFI ratio to isotype control)", "setting": "[5]", "result": 1.1}, {"measurement": "MFIR (MFI ratio to isotype control)", "setting": "[6]", "result": 1.6}, {"measurement": "MFIR (MFI ratio to isotype control)", "setting": "[7]", "result": 1.2}, {"measurement": "MFIR (MFI ratio to isotype control)", "setting": "[8]", "result": 2}, {"measurement": "MFIR (MFI ratio to isotype control)", "setting": "[9]", "result": 1.5}, {"measurement": "MFIR (MFI ratio to isotype control)", "setting": "[10]", "result": 1.5}, {"measurement": "MFIR (MFI ratio to isotype control)", "setting": "[11]", "result": 1.3}, {"measurement": "MFIR (MFI ratio to isotype control)", "setting": "[12]", "result": 2.6}, {"measurement": "MFIR (MFI ratio to isotype control)", "setting": "[13]", "result": 1}]}
